# Experimental data taken from paper PMC10700544, “Acetylation regulates the oligomerization state and activity of RNase J, the Helicobacter pylori major ribonuclease” (Nature Communications, 2023).
# B1: RNase J residues 139–691 (H. pylori strain 26695) with a C-terminal hexa-histidine tag (domain or fragment, Helicobacter pylori strain 26695, UniProt P56185 137-689, looked up)
# chain: SKASVKITPLGGLGEIGGNMMVIETPKSAIVIDAGMSFPKEGLFGVDILIPDFSYLHQIKDKIAGIIITHAHEDHIGATPYLFKELQFPLYGTPLSLGLIGSKFDEHGLKKYRSYFKIVEKRCPISVGEFIIEWIHITHSIIDSSALAIQTKAGTIIHTGDFKIDHTPVDNLPTDLYRLAHYGEKGVMLLLSDSTNSHKSGTTPSESTIAPAFDTLFKEAQGRVIMSTFSSNIHRVYQAIQYGIKYNRKIAVIGRSMEKNLDIARELGYIHLPYQSFIEANEVAKYPDNEILIVTTGSQGETMSALYRMATDEHRHISIKPNDLVIISAKAIPGNEASVSAVLNFLIKKEAKVAYQEFDNIHVSGHAAQEEQKLMLRLIKPKFFLPVHGEYNHVARHKQTAISCGVPEKNIYLMEDGDQVEVGPAFIKKVGTIKSGKSYVDNQSNLSIDTSIVQQREEVASAGVFVATIFVNKNKQALLESSQFSSLGLVGFKDEKPLIKEIQGGLEVLLKSSNAEILNNPKKLEDHTRNFIRKALFKKFRKYPAIICHAHSF
# notes: the results say 137–691); One monomer in the asymmetric unit; the tetramer (dimer-of-dimers) is generated by crystal symmetry; The CTD (587–691) is poorly ordered in the crystal; also called RNase J 139–691; C1hRSEj; source: E. coli, co-expressed with RhpA 21–465, purified (HiTrap Ni column, HALO resin flow-through, S200 SEC)
# Biological target: the molecule itself
# Test: crystal structure; crystals from 0.1 M HEPES pH 7.5, 25% wt/v polyethylene glycol 1000; space group P4(1)22; one monomer in the asymmetric unit, tetramer by crystal symmetry
protein,measurement,value
B1,stoichiometry N,4
